Substitutions are numbered along the chain they refer to. Like-named read-outs stand apart in the source and are kept apart here.

By EC50 is commonly meant the concentration that produces a half-maximal response. Read a high EC50 as lower potency in that assay. For orientation: Kd means the equilibrium constant for the complex coming apart. Broadly, the koff is the rate constant with which the complex falls apart. Usually kon stands for a measure of how fast the partners come together.

Assay [1] concerns the target T1, human CD40-Fc protein (human, biotinylated (sites not given) in the capture ELISA and the benchmark blocking ELISA; not biotinylated in the ligand blocking ELISA).
T1 construct: also called biotinylated human CD40-Fc
Briefly: capture ELISA: antibody captured on coated goat anti-human IgG F(ab')2, biotinylated human CD40-Fc 1.15 nM, streptavidin-HRP, OD(450-630). The method, then: (§1) The plate was washed once with a washing buffer (PBS+0.05% v/v of Tween-20, PBST) and then blocked with 200 μL/well blocking buffer (PBST containing 5% w/v of skim milk) for 2 h at 37° C. The plate was washed 4 times, and the anti-CD40 antibody of the present application, BM1, BM2, and a negative control hIgG (human immunoglobulin for intravenous injection (pH 4), Hualan Biological Engineering Inc.) serially 5-fold diluted from 66.7 nM in a PBST containing 2.5% w/v of skim milk was added at 100 μL per well. The plate was incubated for 40 min at 37° C. and washed 4 times. A biotinylated human CD40-Fc protein (amino acid residues 21-193 of SEQ ID NO: 30 linked to the N terminus of amino acid residues 99-330 of SEQ ID NO: 28, dissolved in PBST containing 2.5% w/v of skim milk at a concentration of 1.15 nM) was added at 100 μL/well to a 96-well plate coated with the anti-CD40 antibody. The plate was incubated at 37° C. for 40 min and washed 4 times. An HRP-labeled streptavidin (diluted at 1:10000 in PBST, Jackson Immuno Research, Cat. No. 016-030-084) was added at 100 μL/well, and the plate was incubated at 37° C. for another 40 min. After the last wash, 100 μL/well of ELISA substrate TMB (Innoreagents, Cat. No. TMB-S-002) was added and the plate was incubated at room temperature. After 3-10 min, the reaction was stopped by adding 1 M H₂SO₄ at 50 µL/well, and the absorbance of each well was read on a microplate reader using the dual wavelength mode (TMB detection wavelength: 450 nm, reference wavelength: 630 nm). Curves of OD(450-630) values vs. antibody concentration were plotted. Data were analyzed using Graphpad Prism software, and EC₅₀ values were obtained.
For orientation: In an ELISA, binding on a coated surface is turned into a signal by an enzyme label.

In assay [2] the target is T1, human CD40-Fc protein. The description is as above. The method, then: as §1
The source holds these as a separate data set.

The target in assay [3] is T2, recombinant human CD40-his (Acro biosystems, Cat. No. CD0-H5228) (human, UniProt P25942 21-193).
T2 construct: Bought protein; also called human CD40-his protein; not shown: His tag
T2 sequence (P25942 21-193 limits assumed): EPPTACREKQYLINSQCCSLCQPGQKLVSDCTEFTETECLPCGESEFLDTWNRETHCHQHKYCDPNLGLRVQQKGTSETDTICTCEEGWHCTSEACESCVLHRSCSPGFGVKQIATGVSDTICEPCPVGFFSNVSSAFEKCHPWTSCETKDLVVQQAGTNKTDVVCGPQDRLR
The experiment in a line: BLI (Octet RED 96), antibody captured from cell supernatant on AHC sensor, human CD40-his as analyte, 1:1 fit. On the procedure: After six days of culture in a shake flask, the cell supernatant containing the humanized antibodies huC1H1-V1 to huC1H1-V4 was harvested and the binding affinity of the antibodies to human CD40 was determined on an Octet system (Fortebio, Octet RED 96) according to the following procedures. Briefly, an anti-human IgG Fc capture (AHC) biosensor (from ForteBio) was pre-soaked in a 10 mM glycine solution (pH 1.5) for 3 s, and then soaked in a running buffer (PBST containing 0.5% w/v of BSA) for 3 s. The pre-soaking and soaking procedures were repeated 3 times. Then, the sensor was soaked in the cell supernatant containing the humanized anti-CD40 antibody, chimeric antibody C1H1 dissolved in HBS-EP⁺ buffer at a concentration of 5 μg/mL, or the benchmark dissolved in HBS-EP⁺ buffer at a concentration of 5 μg/mL for 120 s, and then soaked in the running buffer for 5 min. The new baseline was run in the running buffer for 180 s. The sensor was then soaked for 120 s in human CD40-his protein (Acro biosystems, Cat. No. CD0-H5228) 2-fold serially diluted from 40 nM in the running buffer and for 10 min in the running buffer […]. Finally, the sensor was pre-soaked in a 10 mM glycine solution (pH 1.5) for 3 s, and then soaked in the running buffer for 3 s. The pre-soaking and soaking procedures were repeated 3 times. The association and dissociation curves were fitted to a 1:1 Langmuir binding model using ForteBio Data Analysis 8.1.

T1 sequence (chain, as listed by the source limits assumed): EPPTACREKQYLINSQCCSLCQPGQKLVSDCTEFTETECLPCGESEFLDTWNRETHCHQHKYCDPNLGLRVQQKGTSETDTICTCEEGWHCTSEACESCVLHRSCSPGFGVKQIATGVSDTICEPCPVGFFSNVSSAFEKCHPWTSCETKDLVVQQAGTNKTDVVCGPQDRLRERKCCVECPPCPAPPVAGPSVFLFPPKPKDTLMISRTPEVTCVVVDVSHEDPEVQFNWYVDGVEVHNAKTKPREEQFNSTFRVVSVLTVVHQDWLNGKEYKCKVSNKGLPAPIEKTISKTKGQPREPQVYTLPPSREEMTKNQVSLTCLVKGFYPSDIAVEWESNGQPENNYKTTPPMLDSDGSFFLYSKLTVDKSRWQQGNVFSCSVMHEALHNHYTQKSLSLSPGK

B1: chimeric antibody 1D1 (antibody, human IgG1, kappa, V domains shown)
VH: EVQLQQSGPELVKPGASVKMSCKASGYTFTDYVMHWVKQKPGQGLECIGYINPYNDGTTYNEKFKGKATLTSDKSSNAAYLELSSLTSEDSAVYYCARGFLRESWFGYWGQGTLVTVSA
VL: DVLLTQTPLSLPVSLGDQASISCRSSQNIVHSNGNTYLDWYLQKPGQSPKLLIYKVSNRFSGVPDRFSGSGSGTDFTLKISRVEAEDLGVYYCFQGSHVPPTFGGGTKLELKR
notes: Mouse variable regions on human IgG1 / kappa constant regions
B1 yielded an EC50 in assay [1] of 15 nM.

B2: mouse anti-CD40 monoclonal antibody 1D1 (parent of chimeric antibody 1D1) (antibody, V domains shown)
VH: B1 VH
VL: DVLLTQTPLSLPVSLGDQASISCRSSQNIVHSNGNTYLDWYLQKPGQSPKLLIYKVSNRFSGVPDRFSGSGSGTDFTLKISRVEAEDLGVYYCFQGSHVPPTFGGGTKLELK
notes: Parent mouse antibody of chimeric 1D1; also called parent antibody
On to B2, for which the EC50 in assay [1] was 8.7 nM.

B3: chimeric antibody 1A3 (antibody, human IgG1, kappa, V domains shown)
VH: EVQLQQSGPELVKTGASVKISCKASGYSFIGYYLHWVKQSLGKGLEWIGYISCHDGTIIYNQKFKGKATFTLDTSSSTAYMQFSSLTSEDSAVYFCARFLNYYGSNYAMDYWGQGTSVTVSS
VL: DIVMTQSHKFMSTSVGDRVSITCKASQDVGPAVAWYQQKPGQSPKLLIYWASTRHTGVPDRFTGSGYGTDFTLTINNVQSEDLADYFCQQYFTYPLTFGGGTKLEIKR
notes: as for B1
For the molecule B3, the EC50 in assay [2] was 1.33 nM.

B4: mouse anti-CD40 monoclonal antibody 1A3 (parent of chimeric antibody 1A3) (antibody, V domains shown)
VH: B3 VH
VL: DIVMTQSHKFMSTSVGDRVSITCKASQDVGPAVAWYQQKPGQSPKLLIYWASTRHTGVPDRFTGSGYGTDFTLTINNVQSEDLADYFCQQYFTYPLTFGGGTKLEIK
notes: Parent mouse antibody of chimeric 1A3; also called parent antibody
B4: it took 0.592 nM to reach a half-maximal effect in assay [2] (EC50).

B5: humanized antibody huC1H1-V3 (antibody, human IgG2, kappa, V domains shown)
VH: EVQLVESGGGLVKPGGSLRLSCAASGFTFSNYGISWVRQAPGKGLEWVASISSGGDNTYYPDNVKGRFTISRDNAKNSLYLQMNSLRAEDTAVYYCARAGEKAMDYWGQGTLVTVSS
VL: EIVLTQSPATLSLSPGERATLSCRASQTINNNLHWYQQKPGQAPRLLIYYASQSISGIPARFSGSGSGTDFTLTISSLEPEDFAVYYCQQFSSWPLTFGGGTKVEIKR
notes: Human IgG2 / kappa; Tested as cell supernatant in the Octet assay
Consider B5, for which, in assay [3], the Kd is 5.41 nM, the off-rate constant (koff) came out at 0.00283 s⁻¹ and the kon amounted to 523000 M⁻¹ s⁻¹.

B6: humanized antibody huC1H1-V4 (antibody, human IgG2, kappa, V domains shown)
VH: B5 VH with A49S
VL: B5 VL
notes: as for B5
Consider B6, for which, in assay [3], the dissociation constant Kd came out at 8.66 nM, the koff came out at 0.00367 s⁻¹ and the association rate constant (kon) turned out to be 424000 M⁻¹ s⁻¹.

The values above are taken from patent US20240398942A1 (CHIA TAI TIANQING PHARMACEUTICAL GROUP, published 2024).
